The record followed here is the nanobody polyreactivity screen of Harvey et al. (2022).

The nature of this data set: yeast display, Sf9 membrane polyspecificity reagent, FACS + sequencing; frameworks hold sequencing errors. The procedure, abridged:
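Genes from sorted yeast were amplified by colony PCR, read by MiSeq 2 × 250 sequencing and filtered on CDR length. These cells carried a synthetic nanobody library in Saccharomyces cerevisiae BJ5465 and were sorted by FACS into low and high (top ~1%) gates on anti-HA and streptavidin fluorescence. Polyreactivity is labelled according to the gate of origin.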
As to “QVQLVESGGGLVQAGGSLRLSCAASGRSFKRYDMGGYIQAPGKERELVAAITGTGGSTYYADSVKGRFTISRDNAKNTVYLQMNSLKPEDPADYYCAARLYNTYSGFAFGYWGQGTQVTVSS”, the “polyreactivity (PSR sort gate)” value was “high polyreactivity”. As to “QVQLVESGGGLVQAGGSLRLSCAASGSTFRYYAMGWYRQAPGKERELVAAITYRGSSTYYADSVKGRFTISRDNAKNTVYLQMNSLKPEDTAVYYCARRYAGDYYYWGQGTQVTVSS”, the “polyreactivity (PSR sort gate)” value is listed as “high polyreactivity”. For the sequence “QVKLVESGGGLVQAGGSLRLSCAASGRTVTRNTMGWYRQAPGKERELVAAISRSGGGTYYADSVKGRFTISRDNAKNTVYLQMNSLKPEDTAVYYCAAVPQNYRNFDGYNYWGQGTQVTVSS”, the “polyreactivity (PSR sort gate)” value is “high polyreactivity”. With “QVQLVESGGGLVQAGGSLRLSCAASGYIFTDKVMGWYIQAPGKERELVAAITYSAASTYYADSVKGRFTISRDNAKNTVYLQMNSLKPEDTAVYYCATEYYIGVNYRGDYWGQGTQVTVSS”, the “polyreactivity (PSR sort gate)” value is given as “low polyreactivity”.

“QDQLVESGGALVQAGGSLLLSCAASGITFGDHAMGWYRQAPGKEWELFAAISWSGDRTFYADSVTGRFTISRDNAKNTVSLQMNSLNPADTAVYYCNAEIGWHNEGRLSTYDYWGQGTQVTVSS”: the “polyreactivity (PSR sort gate)” value is “low polyreactivity”.

Consider “QVQLVESGGGLVQAGGSLRLSCAASGSIFVDYAMGWYRQAPGKERELVAAITSTGSTTYADSVKGRFTISRDNAKNTVYLQMNSLKPEDTAVYYCAASFRWYGTVRYPYEMYYWGQGTQVTVSS”, for which the “polyreactivity (PSR sort gate)” value is listed as “low polyreactivity”. The entry for “QVQLVESGGGLVQAGGSLRLSCAASGITFAYYAMGWYRQAPGKERELVAGISKSGGRTYYADSVKGRFTISRDNAKNTVYVQLNSLKPEYTAVYYCASQDARRIVYDRYYYWGQGTQVTVSS” is “high polyreactivity”; for “QVQLVESGGGLVQAGGSLRLSCAASGFTFVRNALGWYRPAPGKERELVAAITDAGRTTYADSVKGRFTISRDNAKNTVYLQMNSLKPEDTAVYYCAKGKWWGWPWYSMDYWGQGTQVTVSS” it is “low polyreactivity”. For the sequence “QVQLQESGGGMVQAGGSQRLSCAASGYISWADYMGWYRKATGKERELVAGIGYGSTTYYADSVKGLFTISRDNANNTAYLQMNSLKPEDTAVYYCAVGWYRDTAYKYWGQGTQVTVSS”, the “polyreactivity (PSR sort gate)” value is given as “low polyreactivity”. For “QVQLVESGGGLVQAGGSLRLSCAASGFIFSRYAMGCYRQSPGKERELVATIRRSGRTNYADSVKGRFTISRDNAKNTFYLQMNSLKPEDTAVYYCAKPGQWHRYHYGSWGQGTQVTVSS”, the “polyreactivity (PSR sort gate)” value was “low polyreactivity”. Take “QVQLVESGGGLVQAGGSLRLSCAASGSTIRYYAMGWYRQAPGKERELVAAISYGGGITNYADSVKGRFTISRDNAKNTVYLQMNSLKPEDTAVYCCAAYYRITRYDYWGQGTQVTVSS”: the “polyreactivity (PSR sort gate)” value is “high polyreactivity”. Turning to “QVELVESGGGLGQAGGSLRLSCAASGLIFVLNDMGWYRLAPGKVRELVAAISYSGSSTYADSVKGRFTISRDNAKNTVYLQMNSLKPEDTAVYYCARGSKVRTRGVGYWGQGTQVTVSS”, the “polyreactivity (PSR sort gate)” value is reported as “low polyreactivity”. As for “QVQHLETGGGLDQAGGSLRLSCAASVRTFGANAMAWYRQAPGNERALVAAITGRGGSTYYADSVKGRFTFSRDNAKNTVYLQMNSLKPEDTAVYYCAKPFKRGYGYDYWGQGTQVTVSS”, the “polyreactivity (PSR sort gate)” value is “low polyreactivity”.

For “QVQLVESGGGLVQAGGSLRLSCAASGFTFTGYAMGWYRQAPGKERELVAVISETGGSTYADSVKGRFTISRDNAKNTVYLQMNSLKPEDTAVYYCNARSGYYLRYYDYDYWGQGTQVTVSS”, the “polyreactivity (PSR sort gate)” value is “low polyreactivity”. The entry for “QVQLVESGGGLVQAGGSLRLSCAASGLTFGRNAMGWYRQAPGKERELVAAITFNGGSTYYADSVKGRFTISRDNAKNTVYIQMNSLKPEDTAVYYCAAPYYVYWTYPYRVLSYYYWGQGTQVTVSS” is “high polyreactivity”. “QVQLVESGGGLVQAGGSLRLSCAASGFIFRRNAMGWYRQAPGKERELVAAIRFRSGSTYYAHSVKGRFTISRDNAKNTVYLQKNSLKPEDTAVYYCAADNKRSWRYAYNYWGQRTQVTVSS”: the “polyreactivity (PSR sort gate)” value is reported as “high polyreactivity”. With “QVQLVESGGGLVQAGGSLRLSCAASGSIFSVYAMGWYRQAPGKERELVAAITSGTSTYADSVKGRFTISRDNAKNTVYLQMNSLKPEDTAVYYCAAESGSPGYYYWGQGTQVTVSS”, the “polyreactivity (PSR sort gate)” value is on record as “low polyreactivity”. The entry for “QVQLVESGGGLVQAGGSLRLSSAAYGSIFTYNAMGWYRQAPGKERELVDTISWRGGSTYYADSVKGRFTISRDNAKNTVYLQMNSLKPEDTAVYYCDKSWRGRYDYWGQGTQVTVSS” is “high polyreactivity”; for “QVQLVESGGGLVQAGGSLRLSCAASGSTVRRYAMGWYRQAPGKERELVAAISWSGGSTYYADSVKGRFTISRDNAKNTGYLQMNSLKPEDTAVYYCAARGVTSYWQDYDYWGQGTQLTVSS” it is “low polyreactivity”; for “QLQLVESGGGLDQAGGSLRLSCAASRYTMGWYRQAPGKEMELVPAITGGGSTNYADSVKGRFTISRDNAKNTVYLHMNSLKPEDTAVYYCAVDYAVSYAGWVLRYDYWGQGTQVTVSS” it is “low polyreactivity”.

Regarding “QVQLVESGGGFVQAGGSLRLSCAASGFTFYRNAMGWYRQAPGKERELVAAITWSGTSTYYADSVKGRFTISRDNAKTTVYVQMNSLKPEDTAVYYCNTVGYRGRSNSRFYYWGQGTQVTVSS”, the “polyreactivity (PSR sort gate)” value was “high polyreactivity”. The entry for “QVQLVESGGGLVQAGGSLRLSCAASGSTFQYYAMGWYRQAPGKEREFVAAIHWDGGRTYYADSVKGRFTISRDNAKNTVYLQMNSLKPEDTAVYYCAAYTRYKMDYWGQGTQVTVSS” is “high polyreactivity”; for “QVQLVESGGGLLQAGVSLRLSCAASGRIYSKYAMGRYRQAPGKERELVAAITYSGGSTYYADSVKGRFTISRDNAKNTVYLQMNSLKPEDSAVYYCAAVHCTSYSKWFGYWGQGTQVSVSS” it is “low polyreactivity”; for “QVQLVESGGGLVQAGGSLRLSSAASGSTFSDYAMGWYRQAPGKERELVAGITGGGGTYYADSVKGRFTISRDNAKNTVYLQMNSLKPEDTAVYYCAAGRRHGFGYWGQGTQVTVSS” it is “low polyreactivity”.

As to “QVQLVESGGGLVQAGGSLSLSCAATGSIFGGNAMGWKRQAPGKERELVATITDRGSSTYYADSVKGRFTISRDNAKNTVYLRMHSLNPDDTAVYYCANAFPDVPEHDYGGQGTQVTVSS”, the “polyreactivity (PSR sort gate)” value is given as “low polyreactivity”. Regarding “QVQLVESGGGLVQAGGSLRLSCAASGTTLYYYAMGWSRQAPGKERELVASITKSGASTYYADSVKGRFTISRDNAKNTVYLQMNSLKPEDTAVYYCARDPFWRGYTPRHYNYWGQGTQVTVSS”, the “polyreactivity (PSR sort gate)” value is on record as “low polyreactivity”. Regarding “QVQLVESGGGLVQAGGSLRLSCAASGSISGYYAMGWYRQAPGKESELVASIRYTGARTYYADSVKGRFTISRDNAKNTVYLQMNSLKPEDTAVYYCAADVKRDRVWGGDYWGQGTQVTVSS”, the “polyreactivity (PSR sort gate)” value was “low polyreactivity”. Regarding “QVQVVESGGGLVQAGGSLRLSCAASGSIFSYNAMGWYRQAPGKERELVATITWSAGSTYYADSVKGRFTISRDNAKNPVYLQMNSLKPEDTAVYYCAKRARESSSVSRVNYWFDYWGQGTQVTVSS”, the “polyreactivity (PSR sort gate)” value is on record as “low polyreactivity”. As for “QVQLVESGGGLVQAGGSLRLSCASSGLTFWRYVMGWYRQAPGKESELVATISIGGSTNYADSVKGRFTISRDNAKNTVYLQMNSLKPEDTAVYYCAAKFRGDVFPYYYWGQGTQVTVSS”, the “polyreactivity (PSR sort gate)” value is listed as “high polyreactivity”. Consider “QVQLVESGGGLVQAGGSLRLSCAASGSIFEPYTMGWYRQAPGKERELVAAITGSGGSTFYADSVKGRFTISRDNAKNTVYLQMNSLKPEDTAVDYCNAYAYPYTDVDYWGQGTQVTVSS”, for which the “polyreactivity (PSR sort gate)” value is “low polyreactivity”.
